From article PMC3905845, “Intracellular dynamics of archaeal FANCM homologue Hef in response to halted DNA replication” (Nucleic Acids Research, 2013)

Biological target: the molecule itself
Test: AUC; sedimentation velocity (0.9, 1 and 1.6 mg/ml) and sedimentation equilibrium (0.6 or 1 mg/ml) at 20°C in buffer C (2M KCl, 10 mM Hepes, pH 7.0), absorbance at 280 nm; SEDFIT and SEDPHAT

B1: Haloferax volcanii Hef protein (helicase-associated endonuclease fork-structure DNA), full length with a six-histidine tag (natural protein, UniProt D4GYC2 1-858, looked up)
chain: MSASEDVAYVDHPLLAPSFIERRLYQIRLAGTARDGHTLVCLPTGLGKTTVSLLVTAQRLHDVGGKSLFLAPTKPLVQQHADFYREALTVPDDEIVVFTGDVRPDDRAELWQEAQIVIATPQVIENDLIGNRISLRDVTHLTFDECHRASGDYAYVYIAERYHAAAENPLVTGMSASPGGDEEAILEVCENLGIVDVEVMTEEDADVSEYTHDTDVEWNRIQLPDEILEIRDALNEVITDRLEKLKQLGVTKSTKPDISQKKLNRMRAELQRLMNADKSEGYKGMSTHAEVMKLRRAVELVETQSVESVRRYFERQRNAARSSGASKASQRLVAEPKVREAMRKAESFDGLHPKFRKTRILLAETLGIQNGERVIVFTESRDTAEALTEFLSESFSVRRFVGQGDREGSDGMTQNEQQETLDKFRNGEFEVLVSTSVAEEGLDVPEVDLVLFFEPVPTAIRSIQRKGRTGRQADGRVVVLLAEDTRDEAYFWISRRREKTMQNELRDLKGAADDLEAELDPSQRDLSAFAGDDASSAGSAGSSTRNEGVDVASEGDANGASATASSASNGRTATAAATDSDGQSGLADFGPSDEALARADDGDDSHGEDADPADSGDDPASDAEGDEVDDSATVAAAGTDDEDTVEIVVDQRELDSNIARTLSKREDLTTRLETLAVGDYVLSDRVAVERKSVSDFLDTLTGGDRSIFEQIADLTRHYARPLLVIEGRGLYEERNIHPGAIRGALSSVAVDFNVSVLFTEDEDDTAELLATIATREQTDRERTVSVHGGKSAKTLDEQQEYVVSAIADIGPVTARTLLEAFGSVEAVMTANEEDLKEVRGVGQVTAERIREVVGSEYR
notes: Hef helicase/endonuclease of the XPF/MUS81/FANCM family, Haloferax volcanii; full-length protein; predicted monomeric molecular mass 93.95 kDa; hef amplified from plasmid pTA1097 and cloned into pTA963 (PciI-EcoRI); also called HvoHef; Hef holoprotein; source: H. volcanii (native host, strain lacking hef, tryptophan-induced), purified (Ni-NTA agarose, S-200 gel filtration)
- stoichiometry N: 2
